B1: Sar probe (dsDNA)
DNA 1: GGCGTCGAGCGCCAGGC
DNA 2: GCCTGGCGCTCGACGCC
B2: hrpG motif (dsDNA)
DNA 1: TTTTGTCCTGGCGTCGGGCGCCAGGCGTCGGCGTC
DNA 2: GACGCCGACGCCTGGCGCCCGACGCCAGGACAAAA
B3: hrpX motif (dsDNA)
DNA 1: GCTGCATACAATCGTGTGCGCCAGCGAGCTCGGCG
DNA 2: CGCCGAGCTCGCTGGCGCACACGATTGTATGCAGC
B4: Sar mutated probe (dsDNA)
DNA 1: GTTCCATCTACTTCACC
DNA 2: GGTGAAGTAGATGGAAC

The source of these data is PMC9742495.

This data set has as its target Sar (PXO_RS20790) (Xanthomonas oryzae pv. oryzae PXO99A, UniProt A0A0K0GPT9 1-242). The data set can be described thus: EMSA.
As to B1, the binding result is “binds”.

Take B2: the binding result is listed as “binds”.

B3: the binding result is on record as “binds”.

For the molecule B4, the binding result is given as “no binding”.
